Reference: patent US20090117551

What was measured:
[1] = test system: GFP-trypsin recognition peptide inserted modified protein
[2] = test system: GFP-caspase-3 recognition peptide inserted modified protein

## Trypsin
[1]
  FRET between quantum dot and GFP after protease treatment (37 C, 120 minutes): the disappearance of FRET was observed
  FRET waveform pattern, simultaneous DNase/trypsin assay (QD565 with GFP of FIG. 5A): it was observed that the peak around 510 nm shifted
  peak wavelength of fluorescence intensity: shifted from 513 nm (untreated with trypsin) to 508 nm (treated with trypsin)

## Caspase-3 (Medical & Biological Laboratories)
[2]
  FRET between quantum dot and GFP after protease treatment (30 C, 120 minutes): the disappearance of FRET was observed
  peak wavelength of fluorescence intensity: shifted from 510 nm (untreated with trypsin) to 506 nm (treated with trypsin)
